Here are results for one substance from paper PMC4850266.

In the test the target is A. fumigatus FKBP12(V91C) (Aspergillus fumigatus). Kind of test: cross-linking; disulfide trapping through the single cysteine V91C; protein purified from C41(DE3) and SHuffle cells without reducing agent; nonreducing SDS-PAGE.

The term stoichiometry N denotes the number of molecules, sites or subunits per partner or assembly. Regarding A. fumigatus FKBP12(V91C) (enzyme), the stoichiometry N was determined as 2.
